Test results: US20150344570A1 (published 2015)

T1: FcγRIIb extracellular domain with C-terminal His tag (human, UniProt P31994 43-217)
T1 construct: extracellular domain; also called 2b; FcgRIIb
T1 sequence (looked up): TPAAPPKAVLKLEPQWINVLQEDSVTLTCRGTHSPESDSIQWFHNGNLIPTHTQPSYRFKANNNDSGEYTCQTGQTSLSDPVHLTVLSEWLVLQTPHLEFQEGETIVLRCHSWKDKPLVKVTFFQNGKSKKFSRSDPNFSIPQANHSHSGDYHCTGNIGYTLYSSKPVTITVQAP

T2: FcγRIIa H (FcgRIIa type H, His at position 131), extracellular domain with C-terminal His tag (human, UniProt P12318 34-217)
T2 construct: extracellular domain; also called 2aH; FcgRIIa H; not shown: His tag at the C terminus
T2 sequence (looked up): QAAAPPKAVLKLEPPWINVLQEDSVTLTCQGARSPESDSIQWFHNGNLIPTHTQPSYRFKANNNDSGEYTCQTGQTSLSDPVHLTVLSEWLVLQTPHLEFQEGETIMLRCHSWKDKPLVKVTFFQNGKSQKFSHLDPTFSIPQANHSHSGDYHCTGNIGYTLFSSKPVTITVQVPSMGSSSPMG

T3: FcγRIIb, extracellular domain with C-terminal His tag (human, UniProt P31994 43-217)
T3 construct: extracellular domain; also called 2b; FcgRIIb; not shown: His tag at the C terminus
T3 sequence (looked up): T1 sequence (looked up)

B1: GpH7-A5/GpH7-B3 variant S298_03V/GpL16-k0 (antibody, human IgG1, kappa)
heavy 1: not shown
heavy 2: not shown
light: DIVMTQSPLSLPVTPGEPASISCQASESLVHSNRNTYLHWYLQKPGQSPQLLIYKVSNRFSGVPDRFSGSGSGTDFTLKISRVEAEDVGVYYCSQNTHVPPTFGQGTKVEIERTVAAPSVFIFPPSDEQLKSGTASVVCLLNNFYPREAKVQWKVDNALQSGNSQESVTEQDSKDSTYSLSSTLTLSKADYEKHKVYACEVTHQGLSSPVTKSFNRGEC
notes: also called He Ab
B2: GpH7-A5/GpH7-B3 variant S324_15Y/GpL16-k0 (antibody, human IgG1, kappa)
heavy 1: not shown
heavy 2: not shown
light: B1 light
notes: also called He Ab
B3: GpH7-A5/GpH7-B3 variant S324_20W/GpL16-k0 (antibody, human IgG1, kappa)
heavy 1: not shown
heavy 2: not shown
light: B1 light
notes: also called He Ab
B4: GpH7-A5/GpH7-B3 variant S298_14T/GpL16-k0 (antibody, human IgG1, kappa)
heavy 1: not shown
heavy 2: not shown
light: B1 light
notes: also called He Ab
B5: GpH7-A5/GpH7-B3 variant T335_05P/GpL16-k0 (antibody, human IgG1, kappa)
heavy 1: not shown
heavy 2: not shown
light: B1 light
notes: also called He Ab
B6: GpH7-A5/GpH7-B3 variant Y300_08L/GpL16-k0 (antibody, human IgG1, kappa)
heavy 1: not shown
heavy 2: not shown
light: B1 light
notes: also called He Ab
B7: GpH7-A5/GpH7-B3 variant S337_01G/GpL16-k0 (antibody, human IgG1, kappa)
heavy 1: not shown
heavy 2: not shown
light: B1 light
notes: also called He Ab
B8: GpH7-A5/GpH7-B3 variant S324_02A/GpL16-k0 (antibody, human IgG1, kappa)
heavy 1: not shown
heavy 2: not shown
light: B1 light
notes: also called He Ab
B9: GpH7-A5/GpH7-B3 variant S324_09D/GpL16-k0 (antibody, human IgG1, kappa)
heavy 1: not shown
heavy 2: not shown
light: B1 light
notes: also called He Ab
B10: GpH7-A5/GpH7-B3 variant T335_06M/GpL16-k0 (antibody, human IgG1, kappa)
heavy 1: not shown
heavy 2: not shown
light: B1 light
notes: also called He Ab
B11: GpH7-A5/GpH7-B3 variant S324_01G/GpL16-k0 (antibody, human IgG1, kappa)
heavy 1: not shown
heavy 2: not shown
light: B1 light
notes: also called He Ab
B12: GpH7-A5/GpH7-B3 variant S337_04F/GpL16-k0 (antibody, human IgG1, kappa)
heavy 1: not shown
heavy 2: not shown
light: B1 light
notes: also called He Ab
B13: GpH7-A5/GpH7-B3 variant S324_14T/GpL16-k0 (antibody, human IgG1, kappa)
heavy 1: not shown
heavy 2: not shown
light: B1 light
notes: also called He Ab
B14: GpH7-A5/GpH7-B3 variant S324_16H/GpL16-k0 (antibody, human IgG1, kappa)
heavy 1: not shown
heavy 2: not shown
light: B1 light
notes: also called He Ab
B15: GpH7-A5/GpH7-B3 variant K326_16H/GpL16-k0 (antibody, human IgG1, kappa)
heavy 1: not shown
heavy 2: not shown
light: B1 light
notes: He Ab; alteration in one H chain only; also called He Ab
B16: GpH7-A5/GpH7-B3 variant L328_03V/GpL16-k0 (antibody, human IgG1, kappa)
heavy 1: not shown
heavy 2: not shown
light: B1 light
notes: as for B15
B17: GpH7-A5/GpH7-B3 variant K334_20W/GpL16-k0 (antibody, human IgG1, kappa)
heavy 1: not shown
heavy 2: not shown
light: B1 light
notes: as for B15
B18: GpH7-A5/GpH7-B3 variant L328_15Y/GpL16-k0 (antibody, human IgG1, kappa)
heavy 1: not shown
heavy 2: not shown
light: B1 light
notes: as for B15
B19: GpH7-A5/GpH7-B3 variant K334_05P/GpL16-k0 (antibody, human IgG1, kappa)
heavy 1: not shown
heavy 2: not shown
light: B1 light
notes: as for B15
B20: GpH7-A5/GpH7-B3 variant A327_01G/GpL16-k0 (antibody, human IgG1, kappa)
heavy 1: not shown
heavy 2: not shown
light: B1 light
notes: as for B15
B21: GpH7-A5/GpH7-B3 variant A330_01G/GpL16-k0 (antibody, human IgG1, kappa)
heavy 1: not shown
heavy 2: not shown
light: B1 light
notes: as for B15
B22: GpH7-A5/GpH7-B3 variant L328_10E/GpL16-k0 (antibody, human IgG1, kappa)
heavy 1: not shown
heavy 2: not shown
light: B1 light
notes: as for B15
B23: GpH7-A5/GpH7-B3 variant L328_09D/GpL16-k0 (antibody, human IgG1, kappa)
heavy 1: not shown
heavy 2: not shown
light: B1 light
notes: as for B15
B24: GpH7-A5/GpH7-B3 variant K334_12R/GpL16-k0 (antibody, human IgG1, kappa)
heavy 1: not shown
heavy 2: not shown
light: B1 light
notes: as for B15
B25: GpH7-A5/GpH7-B3 variant K326_15Y/GpL16-k0 (antibody, human IgG1, kappa)
heavy 1: not shown
heavy 2: not shown
light: B1 light
notes: as for B15
B26: GpH7-A5/GpH7-B3 variant L328_19Q/GpL16-k0 (antibody, human IgG1, kappa)
heavy 1: not shown
heavy 2: not shown
light: B1 light
notes: as for B15
B27: GpH7-A5/GpH7-B3 variant L328_07I/GpL16-k0 (antibody, human IgG1, kappa)
heavy 1: not shown
heavy 2: not shown
light: B1 light
notes: as for B15
B28: GpH7-A5/GpH7-B3 variant A327_18N/GpL16-k0 (antibody, human IgG1, kappa)
heavy 1: not shown
heavy 2: not shown
light: B1 light
notes: as for B15
B29: GpH7-A5/GpH7-B3 variant K326_20W/GpL16-k0 (antibody, human IgG1, kappa)
heavy 1: not shown
heavy 2: not shown
light: B1 light
notes: as for B15
B30: GpH7-A5/GpH7-B3 variant A330_05P/GpL16-k0 (antibody, human IgG1, kappa)
heavy 1: not shown
heavy 2: not shown
light: B1 light
notes: as for B15
B31: GpH7-A5/GpH7-B3 variant L328_04F/GpL16-k0 (antibody, human IgG1, kappa)
heavy 1: not shown
heavy 2: not shown
light: B1 light
notes: as for B15
B32: GpH7-A5/GpH7-B3 variant K334_10E/GpL16-k0 (antibody, human IgG1, kappa)
heavy 1: not shown
heavy 2: not shown
light: B1 light
notes: as for B15
B33: GpH7-A5/GpH7-B3 variant A327_10E/GpL16-k0 (antibody, human IgG1, kappa)
heavy 1: not shown
heavy 2: not shown
light: B1 light
notes: as for B15
B34: GpH7-A5/GpH7-B3 variant A327_07I/GpL16-k0 (antibody, human IgG1, kappa)
heavy 1: not shown
heavy 2: not shown
light: B1 light
notes: as for B15
B35: GpH7-A5/GpH7-B3 variant K334_02A/GpL16-k0 (antibody, human IgG1, kappa)
heavy 1: not shown
heavy 2: not shown
light: B1 light
notes: as for B15
B36: GpH7-A5/GpH7-B3 variant K334_18N/GpL16-k0 (antibody, human IgG1, kappa)
heavy 1: not shown
heavy 2: not shown
light: B1 light
notes: as for B15

Molecular target: T1, FcγRIIb extracellular domain with …
Experiment: SPR, binding relative to GpH7-A5/GpH7-B3/GpL16-k0 = 100
Procedure: (§1) The heterodimerized antibodies He Abs in which one of the H chains was introduced with an alteration were assayed for their binding activities to each activating FcγR and inhibitory FcγR according to the method described in Example 4. […] The activating FcγRs in FIGS. 26, 27, 28, and 29 are FcγRIa, FcγRIIa (R), FcγRIIa (H), and FcγRIIIa, respectively.
(§2) Analysis of interaction between objective antibody and the FcγR was carried out using Biacore T100 (GE Healthcare). HBS-EP+ (GE Healthcare) was used as the running buffer, and the measurement temperature was set to 25° C. Chips produced by immobilizing the antigen peptide by the amine coupling method to a Series S Sencor Chip CM5 (GE Healthcare), or alternatively, chips produced by allowing preliminarily biotinylated antigen peptides to interact with and immobilize onto a Series S Sensor Chip SA (certified) (GE Healthcare) were used. Antibodies of interest were captured onto an antigen peptide-immobilized chip, and allowed to interact to each FcγR diluted with running buffer. To regenerate and repeatedly use the chip, the antibodies captured on the chip were washed off by reacting 10 mM glycine-HCl, pH 1.5.

Binder	He/Con_2b
B1	64.5 % of control
B2	88.2 % of control
B3	87.5 % of control
B4	77.9 % of control
B5	99.9 % of control
B6	73.6 % of control
B7	92 % of control
B8	78.3 % of control
B9	85.8 % of control
B10	99.4 % of control
B11	81.1 % of control
B12	97.8 % of control
B13	88.4 % of control
B14	83.5 % of control

Molecular target: T4, FcγRIIIa extracellular domain with C-terminal His tag (human, UniProt P08637 17-208)
T4 construct: extracellular domain; also called 3a; FcgRIIIa
T4 sequence (P08637 17-208): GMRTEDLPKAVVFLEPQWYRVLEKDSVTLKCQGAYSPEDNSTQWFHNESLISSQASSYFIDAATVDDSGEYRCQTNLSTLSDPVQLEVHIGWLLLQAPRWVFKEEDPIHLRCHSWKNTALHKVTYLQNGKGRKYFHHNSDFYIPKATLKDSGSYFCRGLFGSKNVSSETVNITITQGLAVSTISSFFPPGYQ
Experiment: as above
Procedure: as §1, §2

Binder	He/Con_3a
B1	109 % of control
B2	101 % of control
B3	102 % of control
B4	113 % of control
B5	105 % of control
B6	105 % of control
B7	102 % of control
B8	104 % of control
B9	101 % of control
B10	102 % of control
B11	105 % of control
B12	101 % of control
B13	103 % of control
B14	104 % of control

Molecular target: T2, FcγRIIa H (FcgRIIa type H, His at …)
Experiment: SPR (Biacore), relative binding, GpH7-A5/GpH7-B3/GpL16-k0 = 100

Binder	He/Con_2aH
B15	97.9 % of control
B16	97.8 % of control
B17	97.6 % of control
B18	90 % of control
B19	97.6 % of control
B20	97.2 % of control
B21	99 % of control
B22	55.5 % of control
B23	58.5 % of control
B24	99.7 % of control
B25	98.3 % of control
B26	86.8 % of control
B27	93.9 % of control
B28	66.8 % of control
B29	83.3 % of control
B30	85.7 % of control
B31	71.7 % of control
B32	98.2 % of control
B33	91.3 % of control
B34	58.4 % of control
B35	97 % of control
B36	99.7 % of control

Molecular target: T3, FcγRIIb, extracellular domain with …
Experiment: as above

Binder	He/Con_2b
B15	119 % of control
B16	126 % of control
B17	104 % of control
B18	193 % of control
B19	105 % of control
B20	116 % of control
B21	104 % of control
B22	172 % of control
B23	199 % of control
B24	111 % of control
B25	159 % of control
B26	105 % of control
B27	160 % of control
B28	113 % of control
B29	148 % of control
B30	137 % of control
B31	219 % of control
B32	114 % of control
B33	140 % of control
B34	127 % of control
B35	108 % of control
B36	115 % of control
